Results: article PMC9845754

Biological target: taxol-stabilized microtubules polymerized from porcine brain tubulin (porcine) (UniProt P02550)
Assay: co-sedimentation; 0, 1, 2, 4, 6, 8 or 10 µM ICR2-His6 added to taxol-stabilized microtubules (5 µM tubulin) in PEMT (100 mM PIPES, 1 mM EGTA, 1 mM MgCl2, 1 mM GTP, 20 µM taxol, pH 6.9); 100,000 g, 25°C, 15 min; SDS-PAGE, Coomassie, densitometry

stoichiometry N (mol ICR2-His6 per mole of tubulin): 0.85
Substance: ICR2-His6 (from UniProt Q9ZQC5 56-583) (natural protein)
